{
  "source": "paper doi:10.1101/580449",
  "about": "(bioRxiv, 2019)",
  "proteins": {"B1": {"name": "CMP-sialic acid transporter homologue from Zea mays (CSTZM), wildtype-like crystallization construct (natural protein)", "chain": "MQWYLVAALLTILTSSQGILTTLSQSNGKYNYDYATIPFLAELFKLSVSGFFLWKECRTSPSVRMTKEWRSVRLYVVPSVIYLIHNNVQFATLTYVDPSTYQIMGNLKIVTTGILFRLVLKRKLSNIQWMAIVLLAVGTTTSQVKGCGDSPCDSLFSAPLEGYLLGILSACLSALAGVYTEYLMKKNNDSLYWQNVQLYTFGVIFNMGWLIYGDFKAGFELGPWWQRLFNGYSITTWMVVFNLGSTGLLVSWLMKYSDNIVKVYSTSMAMLLTMVLSIYLFSVKATIQLFLGIIICIISLQMYFMPVHMLIELPQTLPVTSKENLYFQ"}},
  "biological_target": "the molecule itself",
  "assay": "crystal structure",
  "data": [
    {"protein": "B1", "values": [
      {"measurement": "binding result", "value": "binds"}
    ]}
  ]
}
